Biological target: soluble extracellular domain of human DPP4 (residues S39-P766) (human), P27487
Experiment: SEC-MALS
Conditions: remark: other sources report otherwise

B1: soluble extracellular domain of human DPP4 (residues S39-P766), P27487 39-766 (domain or fragment)
chain: SRKTYTLTDYLKNTYRLKLYSLRWISDHEYLYKQENNILVFNAEYGNSSVFLENSTFDEFGHSINDYSISPDGQFILLEYNYVKQWRHSYTASYDIYDLNKRQLITEERIPNNTQWVTWSPVGHKLAYVWNNDIYVKIEPNLPSYRITWTGKEDIIYNGITDWVYEEEVFSAYSALWWSPNGTFLAYAQFNDTEVPLIEYSFYSDESLQYPKTVRVPYPKAGAVNPTVKFFVVNTDSLSSVTNATSIQITAPASMLIGDHYLCDVTWATQERISLQWLRRIQNYSVMDICDYDESSGRWNCLVARQHIEMSTTGWVGRFRPSEPHFTLDGNSFYKIISNEEGYRHICYFQIDKKDCTFITKGTWEVIGIEALTSDYLYYISNEYKGMPGGRNLYKIQLSDYTKVTCLSCELNPERCQYYSVSFSKEAKYYQLRCSGPGLPLYTLHSSVNDKGLRVLEDNSALDKMLQNVQMPSKKLDFIILNETKFWYQMILPPHFDKSKKYPLLLDVYAGPCSQKADTVFRLNWATYLASTENIIVASFDGRGSGYQGDKIMHAINRRLGTFEVEDQIEAARQFSKMGFVDNKRIAIWGWSYGGYVTSMVLGSGSGVFKCGIAVAPVSRWEYYDSVYTERYMGLPTPEDNLDHYRNSTVMSRAENFKQVEYLLIHGTADDNVHFQQSAQISKALVDVGVDFQAMWYTDEDHGIASSTAHQHIYTHMSHFIKQCFSLP
- stoichiometry N: 2

Source: publication doi:10.1101/2024.07.12.603331
